Our source for the percent of ligand transcytosed from the apical to the basolateral surface values is patent publication US6340743.

The target of this assay is Rabbit polymeric immunoglobulin receptor (pIgR), intact, expressed in transfected MDCK cells (pWe) (rabbit) (UniProt P01832). The assay is described as follows: cell-based or functional assay.
UniProt P01832, sequence (P01832 19-773): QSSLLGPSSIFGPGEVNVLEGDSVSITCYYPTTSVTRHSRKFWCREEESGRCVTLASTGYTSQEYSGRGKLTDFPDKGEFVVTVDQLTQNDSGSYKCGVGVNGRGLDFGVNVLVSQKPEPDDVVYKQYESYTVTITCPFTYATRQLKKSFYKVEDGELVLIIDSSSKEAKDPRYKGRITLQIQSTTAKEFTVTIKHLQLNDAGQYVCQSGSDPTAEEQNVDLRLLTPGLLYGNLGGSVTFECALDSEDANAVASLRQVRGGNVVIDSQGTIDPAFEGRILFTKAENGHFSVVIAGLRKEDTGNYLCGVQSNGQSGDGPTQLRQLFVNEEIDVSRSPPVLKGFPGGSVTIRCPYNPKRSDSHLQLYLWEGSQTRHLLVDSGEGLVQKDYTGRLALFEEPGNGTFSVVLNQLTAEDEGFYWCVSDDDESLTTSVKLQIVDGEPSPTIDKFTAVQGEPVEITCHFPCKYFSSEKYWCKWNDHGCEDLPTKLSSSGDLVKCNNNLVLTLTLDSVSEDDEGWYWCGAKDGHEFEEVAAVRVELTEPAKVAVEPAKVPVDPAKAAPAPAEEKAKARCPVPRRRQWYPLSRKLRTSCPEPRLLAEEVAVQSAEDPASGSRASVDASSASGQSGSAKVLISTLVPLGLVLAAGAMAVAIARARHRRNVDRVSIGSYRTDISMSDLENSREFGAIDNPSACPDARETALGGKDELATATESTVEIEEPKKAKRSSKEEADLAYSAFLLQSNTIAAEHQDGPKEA

For Radio-iodinated IgA (antibody), the percent of ligand transcytosed from the apical to the basolateral surface lay within 5 to 6%.
